For one substance, stoichiometry N results are on record in publication PMC11214832.

For this assay, the target named is SARS-CoV-2 Nsp15 catalytically inactive mutant H234A (SARS-CoV-2). The assay is described as follows: cryo-EM structure.

The stoichiometry N is the number of molecules, sites or subunits per partner or assembly.

As for “SARS-CoV-2 Nsp15 catalytically inactive mutant H234A (enzyme)”, the stoichiometry N stood at 6.
